In publication PMC8967866:

Molecular target: Cyanophora paradoxa photosystem I monomer2 (PSI-monomer unit lacking PsaK) (Cyanophora paradoxa (endogenous, strain NIES-547)) (UniProt P48112)
Assay: cryo-EM structure; PSI tetramer purified from Cyanophora thylakoids; GraFix (glutaraldehyde cross-linked) tetramer at 3.8 Å with C2 symmetry; unfixed wild-type tetramer at 4.0 Å; focused maps of monomer1 and monomer2 at 3.3 Å and 3.2 Å; 0.03% β-DDM, 50 mM Mes-NaOH pH 6.5

Sequence of UniProt P48112 (P48112 whole entry, looked up): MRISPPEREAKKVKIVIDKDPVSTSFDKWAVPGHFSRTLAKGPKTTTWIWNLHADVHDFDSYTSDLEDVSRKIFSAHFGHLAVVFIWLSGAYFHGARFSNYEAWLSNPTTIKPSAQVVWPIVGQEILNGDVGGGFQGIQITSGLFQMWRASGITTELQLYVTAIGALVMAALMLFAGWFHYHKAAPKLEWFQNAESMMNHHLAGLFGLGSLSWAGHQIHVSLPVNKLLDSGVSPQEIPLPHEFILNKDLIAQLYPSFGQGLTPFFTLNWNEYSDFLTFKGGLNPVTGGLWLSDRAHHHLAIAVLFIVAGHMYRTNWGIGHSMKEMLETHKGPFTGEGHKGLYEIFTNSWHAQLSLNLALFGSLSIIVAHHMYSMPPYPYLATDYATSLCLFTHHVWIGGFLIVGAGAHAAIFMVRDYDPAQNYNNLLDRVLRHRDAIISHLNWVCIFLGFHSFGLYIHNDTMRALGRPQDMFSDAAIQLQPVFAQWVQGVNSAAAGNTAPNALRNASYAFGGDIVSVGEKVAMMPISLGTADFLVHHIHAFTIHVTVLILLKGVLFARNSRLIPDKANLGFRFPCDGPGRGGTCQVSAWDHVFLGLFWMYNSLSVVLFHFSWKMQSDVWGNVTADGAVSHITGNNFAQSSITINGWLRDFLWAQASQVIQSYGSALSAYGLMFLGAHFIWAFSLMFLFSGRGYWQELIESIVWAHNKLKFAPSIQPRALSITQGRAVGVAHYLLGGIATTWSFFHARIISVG

- stoichiometry N (PSI-monomer units): 4
Substance: Cyanophora paradoxa photosystem I monomer1 (PSI-monomer unit with PsaK) (from UniProt P48112 1-752; P31173 1-81; Q9T4W8 54-220; P48114 1-70; P48115 26-186; P48116 1-35; P48117 1-40; P48185 1-31) (complex)
